Square brackets hold non-standard residues; d marks the D form. Ends that are not written are not given here.
Target: c-Jun N-terminal kinase (JNK) in primary mouse cortical neurons (mouse)
Assay: cell-based or functional assay

B1: JNK inhibitor according to SEQ ID NO: 172 ("XG-104") (peptide)
peptide: [dR]KKR[dR]QRR[dR]RP[dK]RP[dA]TLNL[dF]-NH2
modifications: N-terminus assumed
SMILES: CC(C)C[C@H](NC(=O)[C@H](CC(N)=O)NC(=O)[C@H](CC(C)C)NC(=O)[C@@H](NC(=O)[C@@H](C)NC(=O)[C@@H]1CCCN1C(=O)[C@H](CCCNC(=N)N)NC(=O)[C@@H](CCCCN)NC(=O)[C@@H]1CCCN1C(=O)[C@H](CCCNC(=N)N)NC(=O)[C@@H](CCCNC(=N)N)NC(=O)[C@H](CCCNC(=N)N)NC(=O)[C@H](CCCNC(=N)N)NC(=O)[C@H](CCC(N)=O)NC(=O)[C@@H](CCCNC(=N)N)NC(=O)[C@H](CCCNC(=N)N)NC(=O)[C@H](CCCCN)NC(=O)[C@H](CCCCN)NC(=O)[C@H](N)CCCNC(=N)N)[C@@H](C)O)C(=O)N[C@H](Cc1ccccc1)C(N)=O
B1 was tested. Which “JNK activity (ratio pJNK/JNK, immunoblot), neurons exposed to 2 µM Aβ42, pre-treatment with 5 µM XG-104: decrease” value did it give?
Its value is 29.2%.

And the “JNK activity (ratio pJNK/JNK, immunoblot), neurons exposed to 2 µM Aβ42, pre-treatment with 10 µM XG-104: decrease” value?
Its value is 60%.

What about the “JNK activity (ratio pJNK/JNK, immunoblot), neurons exposed to 25 µM Aβ42, pre-treatment with 5 µM XG-104: decrease” value of the same binder?
The value was 17.5%.

What about the “JNK activity (ratio pJNK/JNK, immunoblot), neurons exposed to 25 µM Aβ42, pre-treatment with 10 µM XG-104: decrease” value of the same binder?
The value was 59.6%.
